± gives the uncertainty stated by the source.
B1: POU domain, class 2, transcription factor 1, residues 285 to 354; numbered along this chain, P14859 (parent)
chain: LEELEQFAKTFKQRRIKLGFTQGDVGLAMGKLYGNDFSQTTISRFEALNLSFKNMCKLKPLLEKWLNDAE

Variants of: B1
Test: abundance fitness (aPCA) (normalised: wild type 0, dead -1); higher = more abundant; growth selection in yeast, the domain comes from the species named
Details: Homo sapiens

Row | Variant | abundance fitness
1 | Q13P | -0.202 ± 0.065
2 | Q13R | -0.061 ± 0.042
3 | Q13S | -0.005 ± 0.027
4 | Q13T | 0.023 ± 0.037
5 | Q13V | -0.014 ± 0.023
6 | Q13W | -0.188 ± 0.035
7 | Q13Y | 0.011 ± 0.1
8 | R14A | -0.048 ± 0.036
9 | R14C | -0.233 ± 0.12
10 | R14E | 0.028 ± 0.055
11 | R14F | -0.32 ± 0.068
12 | R14G | -0.067 ± 0.046
13 | R14H | -0.156 ± 0.066
14 | R14K | 0.004 ± 0.089
15 | R14L | -0.105 ± 0.034
16 | R14M | -0.089 ± 0.057
17 | R14N | -0.29 ± 0.11
18 | R14P | -1.05 ± 0.14
19 | R14Q | -0.1 ± 0.075
20 | R14S | -0.052 ± 0.04
21 | R14T | -0.024 ± 0.059
22 | R14V | -0.004 ± 0.039
23 | R14W | -0.296 ± 0.35
24 | R14Y | -0.384 ± 0.14

Row | Variant | abundance fitness
25 | R15A | -0.835 ± 0.063
26 | R15C | -0.655 ± 0.086
27 | R15E | -0.971 ± 0.091
28 | R15F | -0.533 ± 0.077
29 | R15G | -1.03 ± 0.05
30 | R15H | -0.725 ± 0.14
31 | R15I | -1.1 ± 0.48
32 | R15K | -1.09 ± 0.11
33 | R15L | -0.826 ± 0.025
34 | R15N | -0.902 ± 0.38
35 | R15P | -1.09 ± 0.15
36 | R15S | -0.974 ± 0.054
37 | R15T | -1.03 ± 0.1
38 | R15V | -0.815 ± 0.042
39 | R15W | -0.953 ± 0.053
40 | R15Y | -0.387 ± 0.12
41 | I16A | -0.039 ± 0.078
42 | I16C | -0.325 ± 0.12
43 | I16D | -0.2 ± 0.3
44 | I16E | 0.073 ± 0.082
45 | I16F | -0.131 ± 0.025
46 | I16G | -0.207 ± 0.11
47 | I16K | -0.021 ± 0.027
48 | I16L | -0.007 ± 0.017

Row | Variant | abundance fitness
49 | I16M | 0.004 ± 0.021
50 | I16N | -0.105 ± 0.047
51 | I16P | -1.07 ± 0.17
52 | I16R | -0.169 ± 0.049
53 | I16S | -0.018 ± 0.042
54 | I16T | -0.03 ± 0.049
55 | I16V | -0.017 ± 0.047
56 | I16W | -0.269 ± 0.076
57 | I16Y | -0.117 ± 0.031
58 | K17C | -0.046 ± 0.045
59 | K17D | 0.001 ± 0.082
60 | K17E | 0.01 ± 0.039
61 | K17G | -0.027 ± 0.065
62 | K17I | -0.1 ± 0.059
63 | K17L | -0.016 ± 0.019
64 | K17M | -0.007 ± 0.024
65 | K17N | 0.076 ± 0.11
66 | K17P | -0.966 ± 0.081
67 | K17Q | -0.023 ± 0.033
68 | K17R | -0.166 ± 0.063
69 | K17S | -0.003 ± 0.019
70 | K17T | -0.029 ± 0.028
71 | K17V | -0.06 ± 0.024
72 | K17W | -0.037 ± 0.039

Row | Variant | abundance fitness
73 | K17Y | -0.07 ± 0.04
74 | L18A | -0.046 ± 0.04
75 | L18C | -0.1 ± 0.066
76 | L18D | -0.601 ± 0.099
77 | L18E | -0.326 ± 0.078
78 | L18G | -0.312 ± 0.061
79 | L18H | -0.277 ± 0.12
80 | L18I | -0.261 ± 0.1
81 | L18M | -0.067 ± 0.083
82 | L18N | -0.408 ± 0.12
83 | L18P | -0.955 ± 0.17
84 | L18R | -0.143 ± 0.072
85 | L18S | -0.094 ± 0.047
86 | L18T | -0.386 ± 0.073
87 | L18V | -0.192 ± 0.034
88 | L18W | -0.237 ± 0.1
89 | L18Y | -0.041 ± 0.057
90 | G19A | -0.391 ± 0.16
91 | G19D | -0.314 ± 0.22
92 | G19H | -0.564 ± 0.36
93 | G19M | -0.471 ± 0.26
94 | G19S | -0.288 ± 0.11
95 | G19V | -0.214 ± 0.44
96 | F20A | -0.035 ± 0.021

Row | Variant | abundance fitness
97 | F20C | -0.016 ± 0.065
98 | F20D | -0.706 ± 0.044
99 | F20E | -0.372 ± 0.031
100 | F20H | -0.045 ± 0.028
101 | F20K | -0.073 ± 0.046
102 | F20L | -0.081 ± 0.039
103 | F20N | -0.197 ± 0.045
104 | F20P | -0.827 ± 0.045
105 | F20Q | -0.038 ± 0.031
106 | F20R | -0.092 ± 0.022
107 | F20S | -0.197 ± 0.036
108 | F20T | -0.253 ± 0.032
109 | F20V | -0.024 ± 0.039
110 | F20W | 0.004 ± 0.047
111 | F20Y | 0.06 ± 0.062
112 | T21A | -0.158 ± 0.04
113 | T21D | -0.191 ± 0.088
114 | T21E | -0.191 ± 0.046
115 | T21F | -0.693 ± 0.045
116 | T21G | -0.113 ± 0.035
117 | T21H | -0.191 ± 0.035
118 | T21I | -0.598 ± 0.055
119 | T21K | -0.065 ± 0.033
120 | T21L | -0.284 ± 0.019

Row | Variant | abundance fitness
121 | T21N | -0.029 ± 0.055
122 | T21P | -0.423 ± 0.035
123 | T21Q | -0.131 ± 0.031
124 | T21R | -0.198 ± 0.035
125 | T21V | -0.482 ± 0.04
126 | T21W | -0.753 ± 0.07
127 | Q22A | -0.014 ± 0.024
128 | Q22C | 0.031 ± 0.025
129 | Q22D | -0.035 ± 0.054
130 | Q22E | -0.024 ± 0.043
131 | Q22F | -0.129 ± 0.038
132 | Q22G | -0.099 ± 0.022
133 | Q22H | -0.118 ± 0.063
134 | Q22I | -0.076 ± 0.045
135 | Q22K | 0.048 ± 0.086
136 | Q22L | -0.001 ± 0.024
137 | Q22M | -0.134 ± 0.051
138 | Q22N | -0.119 ± 0.075
139 | Q22P | 0.001 ± 0.031
140 | Q22R | -0.011 ± 0.024
141 | Q22S | -0.005 ± 0.028
142 | Q22T | -0.011 ± 0.041
143 | Q22V | 0 ± 0.022
144 | Q22W | -0.072 ± 0.032

Row | Variant | abundance fitness
145 | Q22Y | -0.029 ± 0.06
146 | G23A | 0.025 ± 0.042
147 | G23C | -0.073 ± 0.059
148 | G23D | 0.023 ± 0.074
149 | G23E | 0.017 ± 0.088
150 | G23H | 0.013 ± 0.028
151 | G23K | 0.065 ± 0.055
152 | G23L | -0.009 ± 0.02
153 | G23M | -0.023 ± 0.043
154 | G23N | 0.013 ± 0.046
155 | G23P | -0.11 ± 0.022
156 | G23Q | -0.023 ± 0.036
157 | G23R | -0.071 ± 0.047
158 | G23S | -0.021 ± 0.021
159 | G23T | -0.004 ± 0.025
160 | G23V | 0.113 ± 0.049
161 | G23W | -0.069 ± 0.062
162 | G23Y | -0.028 ± 0.037
163 | D24A | -0.058 ± 0.024
164 | D24E | -0.008 ± 0.053
165 | D24G | -0.091 ± 0.041
166 | D24H | -0.06 ± 0.037
167 | D24K | -0.124 ± 0.035
